Results: US6719976B1, “Peptide-based immunotherapeutic agent for treating allergic diseases” (Meiji Milk Products Co., Ltd., priority 1996, dated 2004)

Tests used:
[1] = tested on: rabbit anti-d epitope IgG; experiment: Positive control reactivity with rabbit anti-d epitope IgG; type: binding; conditions: blank: 112
Protocol: (§1) The six multi-epitope peptides (C.A.#1 through C.A.#6) obtained in Example 6 were dissolved in 0.2 M acetate buffer solution (pH 4.5). The solution was dispensed in quantities of 0.1 ml/well in a black plate (manufactured by Dainihon Pharmaceutical Co., Ltd.) then allowed to stand at 4° C. overnight. After the antigen solution was removed, the wells were washed three times with a washing solution and the serum (4-fold dilution) from 29 patients with cedar pollinosis and healthy subjects were each added to separate wells. The system was then reacted at 37° C. for 4 hours. After the sera were removed, the wells were washed three times with a washing solution then reacted with anti-human IgE antibody (made by Pharmacia Inc.) at room temperature overnight. After washing three times with a washing solution, a substrate solution containing 0.1 mM 4-methylumbelliferyl-, β-D-galacto-pyranoside/0.01 M phosphate buffer (pH 7.0), 0.1 M NaCl, 1 mM MgCl2, 0.1% NaN, and 0.1% BSA was added, and the solution was incubated at 37° C. for 2 hours. A solution of 0.1 M glycine/NaOH (pH 10.3) was added to the wells to terminate the reaction. Fluorescent intensity was measured using a fluorophotometer (Labsystems). For positive control to each multi-epitope peptide, biotin-labeled rabbit anti-d epitope IgG and peroxidase-labeled streptoavidin (made by Pierce Inc.) were reacted.

[2] = tested on: human IgE antibody; experiment: Reactivity of the multi-epitope peptides with human IgE antibody (fluorescence plate assay); type: binding
Protocol: as §1

[3] = tested on: T cell line of each patient specifically recognizing Cry j 1 or Cry j 2; experiment: T cell line proliferation response to overlapping peptides ([3H] thymidine uptake); type: cell-based, human; conditions: 18 patients with cedar pollinosis; stimulation index 2 or more
Protocol: Peripheral lymphocytes from 18 patients with cedar pollinosis were stimulated by cedar pollen allergen Cry j 1 or Cry j 2to establish the T cell line of each patient capable of specifically recognizing the respective allergen.
A mixture of 5×10^4 cells of the autologous B cell line treated with mitomycin C, 2 μM of an overlapping peptide, and 2×10^4 cells of the T cell line was incubated for 2 days in RPMI-1640 medium supplemented with 0.2 ml of 15% serum on a 96-well culture plate. After 0.5 μCi [^3H] thymidine was added to the medium, incubation was continued for a further 18 hours. After the cells were harvested on a glass filter using a cell harvester, the level of [^3H] thymidine taken up into the cells was determined with a liquid scintillation counter. If the stimulation index is 2 or more, we consider that the added peptide is recognized as an antigenic peptide. The stimulation index means a value obtained by dividing the level of [^3H] thymidine taken up into the cells when the peptide was added by the level of [^3H] thymidine taken up into the cells when no peptide was added.
The HLA class II type is considered to vary in every patient. It is thus assumed that a T cell epitope to be recognized would vary depending on the HLA class II type. For this reason, the antigenic peptide that the patients recognized was mapped for the individual patient. […] On the allergen molecule, there are both regions that can be readily recognized and regions that can hardly be recognized, as a T cell epitope, depending on individuals. Moreover, since the proliferation rate of T cells varies depending on a T cell epitope, the epitope map alone makes it difficult to determine what antigenic peptide should be chosen to design the multi-epitope peptide.

[4] = tested on: CBF1 mice; experiment: Inducing immune tolerance by administering cedar pollen allergen to mice; type: in vivo; conditions: 300 μg/mouse s.c. twice, then sensitized with 100 μg Cry j 1 + Alum; compared to PBS control group
Protocol: The detailed mechanism in hyposensitization therapy by which cedar pollen allergen is administered for the treatment is yet unknown. To clarify this mechanism, tests were conducted using mice. Cedar pollen allergen Cry j 1 was subcutaneously administered twice to five CBF1 female mice at intervals of 5 days in a dose of 300 μg/mouse. For control, the same dose of PBS was subcutaneously given to five other female mice. Five days later, the animals were sensitized by subcutaneous injection of 100 μg Cry j 1 together with Alum adjuvant. Ten days later, the lymphocytes were isolated to pool them as the lymphocytes from the control group and as the lymphocytes from the Cry j 1-administered mice. Cry j 1 was added to the pooled lymphocytes in doses of 0, 50 and 150 μg/ml. Incubation was performed for 3 days to collect the culture supernatant. In the control (PBS-administered) mouse group, IL-2 production increased as the concentration of Cry j 1 increased from 0 to 50 and 150 μg/ml. […] The results verify that currently implemented hyposensitization therapy using the cedar pollen allergen is efficacious.

[5] = tested on: spleen cells of CBF1 mice immunized with rCry j 2; experiment: Identifying T cell epitopes in CBF1 mice (spleen cell [3H] thymidine uptake); type: cell-based, mouse; conditions: peptides 0.115 μM; Cry j 1 50 μg/ml; rCry j 2 0.3 μg/ml
Protocol: Eight-week-old male CBF1 mice were boosted (i.p.) three times with 10 μg of recombinant Cry j 2 (rCry j 2) at intervals of two weeks together with an adjuvant (Imject Alum, manufactured by Pierce Inc.). One week after the final booster, the spleen cells (5×10^6 cells) were cultured together with each of the 74 kinds of Cry j 2 overlapping peptides (0.115 μM) consisting of 15 residues in 0.2 ml RPMI medium (supplemented with 10% FCS, 2 mM L-glutamine, 50 U/ml penicillin and 50 μg/ml streptomycin) in each well of a 96-well plate(manufactured by Falcon Inc.). For control, the reactivities with PBS, 50 μg/ml of Cry j 1, and 0.3 μg/ml of rCry j 2 were also observed. Each reagent was distributed in three wells and incubated at 37° C. for 3 days in 5% CO2. For the last 6 hours, pulse labeling was performed with 0.5 μCi/well of [^3H] thymidine. The cells were collected on a glass filter using a cell harvester (Inoteck, Bertold Japan Co., Ltd.). After drying, the level of [^3H] thymidine taken up into the cells was determined using a liquid scintillation counter (TRI-CARB 4530, Packard Japan KK).

B1: Cry j 1: major cedar pollen allergen, 353 amino acids, extracted and purified from cedar pollen (protein)
chain: DNPIDSCWRGDSNWAQNRMKLADCAVGFGSSTMGGKGGDLYTVTNSDDDPVNPAPGTLRYGATRDRPLWIIFSGNMNIKLKMPMYIAGYKTFDGRGAQVYIGNGGPCVFIKRVSNVIIHGLYLYGCSTSVLGNVLINESFGVEPVHPQDGDALTLRTATNIWIDHNSFSNSSDGLVDVTLTSTGVTISNNLFFNHHKVMLLGHDDAYSDDKSMKVTVAFNQFGPNCGQRMPRARYGLVHVANNNYDPWTIYAIGGSSNPTILSEGNSFTAPNESYKKQVTIRIGCKTSSSCSNWVWQSTQDVFYNGAYFVSSGKYEGGNIYTKKEAFNVENGNATPQLTKNAGVLTCSLSKRC
Question: What does the source list for B1?
Answer: fluorescent intensity with rabbit anti-d epitope peptide IgG [1]: 230; fluorescent intensity (human IgE reactivity) ([2]; 14 subjects of 29): ≥ 100; fluorescent intensity (human IgE reactivity) ([2]; five subjects of 29): nine; fluorescent intensity (human IgE reactivity) ([2]; four subjects of 29): ≥ 10; fluorescent intensity (human IgE reactivity) ([2]; six subjects of 29): ≥ 1,000; number of T cell epitopes on the molecule that each patient recognized, average [3]: 9.8; IL-2 production of lymphocytes restimulated with Cry j 1 [4]: obviously reduced; reactivity of spleen cells ([3H] thymidine uptake) [5]: did not react
